Patent US9605080B2, “Antibodies against CD73” (BRISTOL-MYERS SQUIBB COMPANY, priority 2014, dated 2017)
Substitutions are numbered along the chain they refer to. In names and notes the source's numbering stands. Blank lines part the entries; values can stand above or below the molecule they belong to.

How the values were obtained:
[1] = biological target: T1, endogenous CD73 activity in Calu-6 cells (Homo sapiens, UniProt P21589); assay: Dual cell line HTRF cAMP assay (Calu-6 and HEK293/A2AR cells); format: cell-based; conditions: percentage of inhibition compared to 100 nM 11F11 set to 100%
T1 construct: Calu6 (CD73 endogenous expressors; human pulmonary adenocarcinoma cell line); endogenous in cells; host or cells: Calu6 (human pulmonary adenocarcinoma)
T1 sequence (P21589 27-549): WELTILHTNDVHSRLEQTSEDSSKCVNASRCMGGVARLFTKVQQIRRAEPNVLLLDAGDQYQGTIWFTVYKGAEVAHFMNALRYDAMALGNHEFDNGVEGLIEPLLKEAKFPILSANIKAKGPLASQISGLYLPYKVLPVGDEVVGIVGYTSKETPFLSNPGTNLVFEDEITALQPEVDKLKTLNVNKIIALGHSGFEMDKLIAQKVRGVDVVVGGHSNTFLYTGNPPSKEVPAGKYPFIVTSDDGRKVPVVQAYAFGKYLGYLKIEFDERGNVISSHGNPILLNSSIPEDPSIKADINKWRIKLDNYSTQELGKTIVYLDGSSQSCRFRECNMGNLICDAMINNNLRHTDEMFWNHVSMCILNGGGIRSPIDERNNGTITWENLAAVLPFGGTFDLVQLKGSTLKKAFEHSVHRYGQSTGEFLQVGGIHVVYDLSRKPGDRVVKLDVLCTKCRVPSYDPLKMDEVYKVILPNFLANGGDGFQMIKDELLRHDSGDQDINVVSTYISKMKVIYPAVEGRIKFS
Method: CD73 antibodies were serial diluted with PBS buffer containing 0.2% BSA, and plated 5 μl/well in 384 well white bottom proxiplate (PerkinElmer, Waltham, Mass.). Calu-6 cells were harvested and resuspend in PBS containing 0.2% BSA, then 5 μl of cells (300 cells/well) were added to the plate. The cells were incubated with antibodies for 10 minutes at 37° C. […] The cells were further incubated with AMP for 30 minutes at 37° C. During this time, HEK293/A2AR cells were harvested and diluted to 0.4 million/ml in PBS containing 0.2% BSA. They were added into the assay plate at 5 μl/well and continued to incubate at 37° C. for 1 hr. HRTF assays were performed using the homogenous time-resolved fluorescence (HTRF) HiRange cAMP detection kit (Cisbio, Bedford, Mass.) by adding 10 μl/well cAMP-conjugated d2 and 10μl/well europium cryptate conjugated anti-cAMP antibody in lysis buffer according to the manufacturer's instructions. Plates were incubated at room temperature for 60 minutes and Fluorescence Resonance Energy Transfer (FRET) signals (665 and 615 nM) were read using an EnVision plate reader (PerkinElmer, Waltham, Mass.). The FRET signal was calculated as the ratio of signal from the 665 nm (acceptor) and 615 nm (donor) channels and multiplied by 10,000. IC50 and Ymax were measured. […] All calculations were determined as a percentage of inhibition compared to this control, which was set to 100%.

CD73 on NCI-H292 cells = biological target: T2, CD73 on NCI-H292 cells (Homo sapiens, UniProt P21589); assay: Flow cytometry based cross-blocking on NCI-H292 cells; format: binding; conditions: FITC-labeled 11F11, 10 ug/mL
T2 construct: maintenance of downregulation of endogenous CD73; endogenous in cells; host or cells: NCI-H292
T2 sequence (P21589 27-549): T1 sequence (P21589 27-549)
Method: The antibodies were also subjected to flow cytometry based cross-blocking. The experiment was conducted as follows using one set of labeled fluorescently labeled antibody and a second set of unlabeled antibody: 100000 NCI-H292 cells were seeded per well. The plate was spun down and the cells were resuspended in 100 uL 2% FBS in PBS per well. The cells were blocked on ice for 20 min. Unlabeled antibody, as indicated, in 2% FBS in PBS was added to each well. […] 6 wells of cells were incubated without antibody, and were resuspended in 100 uL 2% FBS in PBS only (for controls). The cells were then incubated on ice for 30 min. The cells were washed twice with 2% FBS in PBS and the samples were resuspended in 140 uL 2% FBS in PBS, and analyzed on a FacsCalibur flow cytometer (Becton Dickinson).

[2] = Differential scanning calorimetry, thermal stability of CD73 mAbs; format: physicochemical; conditions: PBS pH 7.1
Method: The thermal stability of CD73 mAbs were determined using a MicroCal Capillary DSC instrument (GE Healthcare). Antibodies were analyzed at a concentrations of 0.5-0.75 mg/ml in PBS pH 7.1. To stabilize the DSC instrument baseline and obtain a consistent thermal history, multiple scans of buffer alone in both the sample and reference cell were recorded prior to sample analysis. Sample scans contained mAb in the sample cell and PBS pH 7.1 in the reference cell. All scans were run from 10-110° C. at a scan rate of 60°/hr using a 5 minute pre-cycle thermostat period and no post-cycle thermostat period. Data (as shown in Table 15 below) were analyzed using MicroCal Origin Cap DSC analysis software. The appropriate buffer-buffer blank scans were subtracted from the sample-buffer data, and the transition midpoint temperature (Tm) values were determined by fitting the data to a non-2-state model. Tm1, Tm2 and Tm3 are the Tms for different domains in the antibodies.

human FcγRs = assay: SPR binding to human FcγRs (anti-his Fab captured FcgR-his proteins); conditions: 1.0 μM antibody
Method: Binding of the constructs to human FcγRs was measured via SPR. hCD64 and hCD32a-H131 binding data for IgG1.1 and IgG2 molecules were consistent with expected values for the different Fcs. IgG1.1f is the most inert Fc.
The binding of antibodies to Fc gamma receptors (FcγRs or FcgRs) was studied using biosensor technologies including Biacore surface plasmon resonance (SPR) and Fortebio Biolayer Interferometry (BLI). SPR studies were performed on a Biacore T100 instrument (GE Healthcare) at 25° C. The Fab fragment from a murine anti-6×His antibody was immobilized on a CM5 sensor chip using EDC/NHS to a density of ˜3000 RU. Various his-tagged FcgRs (7 ug/ml) were captured via the C-terminal his-tag using a contact time of 30 s at 10 ul/min, and the binding of 1.0 μM antibody was evaluated in a running buffer of 10 mM NaPO4, 130 mM NaCl, 0.05% p20 (PBS-T) pH 7.1. FcgRs used for these experiments included CD64 (FcgRI), CD32a-H131 (FcgRIIa-H131), CD32a-R131 (FcgRIIa-R131), CD32b (FcgRIIb), CD16a-V158 (FcgRIIIa-V158), CD16b-NA1 (FcgRIIIb-NA1), and CD16B-NA2 (FcgRIIIb-NA2). BLI experiments were performed on a Fortebio Octet RED instrument (Pall, Fortebio) at 25° C. in 10 mM NaPO4, 130 mM NaCl, 0.05% p20 (PBS-T) pH 7.1. […]

[3] = system: hCD32a-H131, hCD32a-R131, hCD32b, hCD16a-V158, hCD64; assay: BLI (Fortebio Octet) binding of FcgR analytes to antibodies captured from supernatants; set-up: species or system human
Method: The binding of antibodies to Fc gamma receptors (FcγRs or FcgRs) was studied using biosensor technologies including Biacore surface plasmon resonance (SPR) and Fortebio Biolayer Interferometry (BLI). SPR studies were performed on a Biacore T100 instrument (GE Healthcare) at 25° C. The Fab fragment from a murine anti-6×His antibody was immobilized on a CM5 sensor chip using EDC/NHS to a density of ˜3000 RU. Various his-tagged FcgRs (7 ug/ml) were captured via the C-terminal his-tag using a contact time of 30 s at 10 ul/min, and the binding of 1.0 μM antibody was evaluated in a running buffer of 10 mM NaPO4, 130 mM NaCl, 0.05% p20 (PBS-T) pH 7.1. FcgRs used for these experiments included CD64 (FcgRI), CD32a-H131 (FcgRIIa-H131), CD32a-R131 (FcgRIIa-R131), CD32b (FcgRIIb), CD16a-V158 (FcgRIIIa-V158), CD16b-NA1 (FcgRIIIb-NA1), and CD16B-NA2 (FcgRIIIb-NA2). BLI experiments were performed on a Fortebio Octet RED instrument (Pall, Fortebio) at 25° C. in 10 mM NaPO4, 130 mM NaCl, 0.05% p20 (PBS-T) pH 7.1. Antibodies were captured out of undiluted expression supernatants on protein A coated sensors, followed by the binding of 1 μM hCD32a-H131, hCD32a-R131, hCD32b, hCD16a-V158, or 0.1 μM hCD64 analytes.
The next set of constructs was used to engineer effector function into the otherwise effector function negative IgG2 isotype. […]

Molecule: Nc1ncnc2c1ncn2[C@@H]1O[C@H](COP(=O)(O)CP(=O)(O)O)[C@@H](O)[C@H]1O [APCP]
Ymax [1]: 97%

competition with 11F11 (CD73 on NCI-H292 cells): competes with 11F11
B1: 7A11: human anti-CD73 mAb, IgG1za, VK1; VH SEQ ID NO: 88, VL SEQ ID NO: 92 (antibody, V domains shown)
VH: EVQLVESGGGLVQTGRSLRLSCAASGFTFDDYAMHWVRQAPGKGLEWVSDISWNSDIIGYADSVKGRFTISRDNAKNSLYLQMNSLRAEDTALYYCAKDIYGSGSSFFDYWGQGILVTVSS
VL: DIQMTQSPSSLSASVGDRVTITCRASQYISSWLAWYQQKPEKAPKSLIYAASSLQSGVPSRFSGSGSGTDFTLTISSLQPEDFATYYCQQYHSYPPTFGQGTRLEIK
modifications: Synthetic: 7A11 VH; Synthetic: 7A11 VK1
DSC Tm1 (oC) [2]: 64.8 oC
DSC Tm2 (oC) [2]: 70.2 oC
DSC Tm3 (oC) [2]: 82.8 oC
DSC Tonset (oC) [2]: 56.0 oC

B2: IgG2.3G1-AY-V27: IgG2.3G1-AY with S267E (protein)
chain: ASTKGPSVFPLAPCSRSTSESTAALGCLVKDYFPEPVTVSWNSGALTSGVHTFPAVLQSSGLYSLSSVVTVPSSNFGTQTYTCNVDHKPSNTKVDKTVERKSCVECPPCPAPELLGGPSVFLFPPKPKDTLMISRTPEVTCVVVDVEHEDPEVKFNWYVDGVEVHNAKTKPREEQYNSTYRVVSVLTVLHQDWLNGKEYKCKVSNKALPAPIEKTISKAKGQPREPQVYTLPPSREEMTKNQVSLTCLVKGFYPSDIAVEWESNGQPENNYKTTPPVLDSDGSFFLYSKLTVDKSRWQQGNVFSCSVMHEALHNHYTQKSLSLSPGK
modifications: Synthetic: IgG2.3G1-AY-V27
notes: IgG2.3G1-AY with S267E
FcgR binding properties (SPR) (human FcγRs): comparable FcgR binding properties to IgG1f and IgG1f-S267E

B3: IgG2.5G1-AY-V27: IgG2-B-form variant (C131S) hybrid with IgG1f, V27 (protein)
constant: B2 chain with C14S, S102C
modifications: left off: another chain or arm of the molecule
FcgR binding properties (SPR) (human FcγRs): IgG1f or modified IgG1f like effector functions

FcgR binding properties (BLI, supernatants) [3]: appreciable binding to only CD32a-H131
B4: IgG2.3: antibody with IgG2 constant region with C219S (protein)
constant: ASTKGPSVFPLAPCSRSTSESTAALGCLVKDYFPEPVTVSWNSGALTSGVHTFPAVLQSSGLYSLSSVVTVPSSNFGTQTYTCNVDHKPSNTKVDKTVERKSCVECPPCPAPPVAGPSVFLFPPKPKDTLMISRTPEVTCVVVDVSHEDPEVQFNWYVDGVEVHNAKTKPREEQFNSTFRVVSVLTVVHQDWLNGKEYKCKVSNKGLPAPIEKTISKTKGQPREPQVYTLPPSREEMTKNQVSLTCLVKGFYPSDIAVEWESNGQPENNYKTTPPMLDSDGSFFLYSKLTVDKSRWQQGNVFSCSVMHEALHNHYTQKSLSLSPGK
modifications: left off: another chain or arm of the molecule
notes: antibody with IgG2 constant region with C219S
